Our source for the suppression of Wnt3a-induced beta-catenin-TCF-regulated transcription (SUPER8XTOPFLASH reporter) in HEK293T and Huh-7 cells cotransfected with Wnt3a values is article PMC2270346.

In this assay the target is mouse Wnt3a, His-tagged (mouse) (UniProt P27467).
Chain of UniProt P27467 (P27467 19-352): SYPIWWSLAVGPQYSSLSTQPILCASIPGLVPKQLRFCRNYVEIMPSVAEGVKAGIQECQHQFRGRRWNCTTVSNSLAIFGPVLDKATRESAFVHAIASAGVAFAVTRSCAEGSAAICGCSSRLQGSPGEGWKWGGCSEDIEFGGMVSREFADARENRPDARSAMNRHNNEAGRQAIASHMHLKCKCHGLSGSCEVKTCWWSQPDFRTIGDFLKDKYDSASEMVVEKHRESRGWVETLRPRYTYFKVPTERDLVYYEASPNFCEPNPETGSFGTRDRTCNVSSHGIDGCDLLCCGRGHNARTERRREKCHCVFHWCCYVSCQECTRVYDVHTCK

Regarding “human FZC18 module, myc-tagged (domain or fragment)”, the suppression of Wnt3a-induced beta-catenin-TCF-regulated transcription (SUPER8XTOPFLASH reporter) in HEK293T and Huh-7 cells cotransfected with Wnt3a was > 80%.
For “human V3Nter, V5-tagged (domain or fragment)”, the suppression of Wnt3a-induced beta-catenin-TCF-regulated transcription (SUPER8XTOPFLASH reporter) in HEK293T and Huh-7 cells cotransfected with Wnt3a was > 80%.
